{
  "source": "patent US11262348B2",
  "about": "“Cell-based assays for detection of antibodies or other factors that neutralize uptake of lysosomal enzymes” (BIOMARIN PHARMACEUTICAL INC., priority 2015, dated 2022)",
  "molecules": {"B1": {"name": "Recombinant human N-acetylgalactosamine-6-sulfatase (protein, UniProt P34059 27-522, looked up)", "N-acetylgalactosamine-6-sulfat …": "APQPPNILLLLMDDMGWGDLGVYGEPSRETPNLDRMAAEGLLFPNFYSANPLCSPSRAALLTGRLPIRNGFYTTNAHARNAYTPQEIVGGIPDSEQLLPELLKKAGYVSKIVGKWHLGHRPQFHPLKHGFDEWFGSPNCHFGPYDNKARPNIPVYRDWEMVGRYYEEFPINLKTGEANLTQIYLQEALDFIKRQARHHPFFLYWAVDATHAPVYASKPFLGTSQRGRYGDAVREIDDSIGKILELLQDLHVADNTFVFFTSDNGAALISAPEQGGSNGPFLCGKQTTFEGGMREPALAWWPGHVTAGQVSHQLGSIMDLFTTSLALAGLTPPSDRAIDGLNLLPTLLQGRLMDRPIFYYRGDTLMAATLGQHKAHFWTWTNSWENFRQGIDFCPGQNVSGVTTHNLEDHTKLPLIFHLGRDPGERFPLSFASAEYQEALSRITSVVQQHQEALVPAQPQLNVCNWAVMNWAPPGCEKLGKCLTPPESIPKKCLWSH", "notes": "enzyme replacement therapy (elosulfase alfa) for the treatment of MPS IVA"}, "B2": {"name": "Alexa488-rhGALNS (conjugate, UniProt P34059 27-522, looked up)", "N-acetylgalactosamine-6-sulfat …": "B1 N-acetylgalactosamine-6-sulfat …", "modifications": "Alexa488 label"}},
  "key": {"[1]": {"assay": "NAb and TAb titers and positivity in individuals treated with elosulfase alfa (clinical study)", "format": "in vivo, human", "description": "Samples from a 24 week study of rhGALNS (elosulfase alfa) treatment were assessed for NAb at baseline and weeks 2, 4, 8, 12, 16, 20 and 24. rhGALNS was infused at 2.0 mg/kg body weight in two dosing cohorts, weekly and every other week (QOW). Positive samples (FIG. 2A) show comparatively low NAb titers [wk 24 mean 52 (range 0 to 1,098) in the weekly group and 130 (range 0 to 1,659) in the QOW group] relative to anti-rhGALNS total antibody (TAb) titers [wk 24 mean 167,737 (range 0 to 1.77×10^6) in the weekly group and 190,901 (range 810 to 1.77×10^6) in the QOW group] (FIG. 2B).\nNAb titers and clinical outcomes To compare the functional NAb assay with the previously reported ELISA-based CI-M6PR binding assay for detecting NAb in elosulfase alfa-treated individuals with Morquio A syndrome [Schweighardt et al., supra], serum samples from the clinical trial were reanalyzed with the cell-based assay. Sufficient serum-sample volumes were available for the majority (842/847 [99%]) of serum sample collection time points to obtain confirmed positive/negative results. The overall concordance was high (89%) between NAb positivity in the receptor binding assay and the cell-based assay. Furthermore, the concordance was consistent over the 24-week treatment period (FIG. 9A).\nTAb titers detected using the CI-M6PR binding assay reported previously [Schweighardt et al., supra] were compared to the time course for NAb titer development detected with the functional NAb assay (FIG. 9B). Titers of both TAbs and NAbs increased rapidly during the first 8 weeks of treatment then plateaued from week 8 to week 24 in both the QOW and QW treatment groups (FIG. 9B). Although the frequency of drug administration had minimal effect on TAb and NAb titers at week 24, the QW treatment group appeared to have higher titers of both TAbs and NAbs in the initial 4 weeks of treatment. Subjects in both the QOW and QW treatment groups developed different NAb titer courses over 24 weeks."}, "[2]": {"assay": "Elosulfase alfa pharmacokinetics in individuals with Morquio A syndrome", "format": "in vivo, human", "details": "QOW and QW cohorts, week 22 PK vs week 24 NAb titer", "description": "Effect of NAb Titer on Elosulfase Alfa Pharmacokinetics: In order to further explore the association between NAbs and pharmacokinetics, NAb titers from the functional NAb assay were compared to total clearance (CL) of drug after intravenous administration and elimination half-life (t1/2). Increased NAb titers were associated with prolonged t1/2 in both the QOW and QW cohorts (FIG. 12A).\nAntibodies that neutralize elosulfase alfa uptake through CI-M6PR may not exist at concentrations sufficient to prevent effective amounts of elosulfase alfa from reaching target tissues. Although NAbs that block uptake of drug are measureable in our cell-based NAb assay, this amount of NAbs may be insignificant relative to elosulfase alfa dose. This cell-based assay was designed to detect the lowest possible NAb concentrations, ideally prior to observed clinical effects. […] 53 (2014) 1137-1147]. […] 53 (2014) 1137-1147]. Although further investigation is needed, one aspect to the lack of neutralizing antibody effect on efficacy may be that rapid clearance of drug from plasma diminishes the rate of neutralizing antibody-elosulfase alfa complex formation. […] Scler. 15 (2009) 977-983]."}, "[3]": {"details": "cited from earlier work; for proportion of patients with NAb positivity: long-term extension study"}, "[4]": {"assay": "Efficacy in clinical study: 6MWT distance and urine keratan sulfate (uKS)", "format": "in vivo, human", "details": "24-week treatment period, QOW and QW", "description": "The primary efficacy measure in the clinical study was the distance walked in a 6MWT, which provides a measure of endurance. Keratan sulfate, an rhGALNS substrate, was also measured in individuals' urine (uKS) to track the pharmacodynamic effect of treatment with elosulfase alfa. NAb titers detected with the functional NAb assay were plotted against the change from baseline to week 24 in 6MWT distance, and the percentage change in uKS from baseline. No association was observed between NAb titer and 6MWT (FIG. 11A) or NAb titer and uKS (FIG. 11B) in individuals dosed weekly or every 2 weeks."}, "[5]": {"details": "after 22 weeks, cited from earlier work; for half-life (t1/2): plasma"}, "[6]": {"system": "Jurkat cells", "assay": "Cell-based flow cytometry assay of Alexa488-rhGALNS uptake (screening assay, % SI)", "design": "species or system human", "details": "for NHPS (% SI): no AbPC; for MFI: Alexa488-rhGALNS 0.4 μg/mL, 20% pooled human serum", "description": "Cell uptake of rhGALNS is measured using flow cytometry to determine the amount of fluorophore-conjugated rhGALNS taken up by Jurkat cells. Jurkat cells are a non-adherent human T cell line that express CI-MPR, which binds and targets rhGALNS to the lysosome. rhGALNS neutralizing antibodies (NAb) are detected in samples by a decrease in fluorophore-conjugated rhGALNS uptake (calculated as % inhibition) that exceeds the screening cut point (SCP).\nFor a 1:1 dilution, 60 μL per well of controls were added in duplicate or in quadruplicate for 2 sets into the appropriate wells. Similarly, for a 1:1 dilution of sample, 60 μL per well of patient screening samples were added into the appropriate wells. For a 1:1 dilution for the confirmation assay, 60 μL per well of patient confirmation samples were added in duplicate into the corresponding wells. The plate was covered, wrapped in foil and allowed to incubate overnight for 14 to 20 hours at 2-8° C.\nAssay: Prior to the sample incubation step, the cell plates were removed from the CO2 incubator and observed to ensure the cells were healthy and viable. […] After the incubation was completed, the cells were washed in PBS by centrifuging the plate for 6 min at 310×g in a tabletop centrifuge at 14 to 18° C., repeated two to five times as appropriate. After the last wash, the plate was removed from the centrifuge, the cell pellet resuspended in 100 μL viability stain (red fluorescent reactive dye 1:1000 dilution) and tested for viability. Once viability testing was complete, the cells were centrifuged 6 min at 310×g in a tabletop centrifuge at 14 to 18° C.\nPercent Signal Inhibition (% SI) is calculated as [% SI=1—mean median fluorescence intensity (MFI) of sample/mean MFI of control×100]. Confirmatory assay data were analyzed as recovery ratio, defined as mean confirmatory assay MFI of sample/mean screening assay MFI of sample. The titer was calculated as the interpolated dilution factor at which the sample crossed the titer cut point determined by linear regression analysis (Microsoft Excel)."}, "[7]": {"system": "Jurkat cells", "assay": "Confocal imaging of Alexa488-rhGALNS internalization and trafficking to lysosomes", "format": "cell-based, human", "details": "LysoTracker Red", "description": "Confocal Imaging: Internalization of Alexa488-rhGALNS and trafficking to lysosomes was confirmed by confocal microscopy by incubating cells from the functional NAb assay described in section 2.3 with 50 nM LysoTracker Red (Molecular Probes) at 37° C. for 1 h. Cells were then washed with serum-free RPMI-1640 and mounted with Prolong Gold Antifade Mountant with DAPI (Molecular Probes), sealed, and visualized using a Leica SP8 confocal microscope (Leica Microsystems). Confocal Z-stacks were acquired using a 63× Plan-Apo objective with 4× zoom and LASX software (Leica Microsystems). Z-stacks were rendered in 3-D and exported using Volocity software version 6.3 (PerkinElmer)."}},
  "note": "Like-named read-outs stand apart in the source and are kept apart here. Marks after values point to notes of the source that are not given here.",
  "data": [
    {"molecule": "B1", "values": [
      {"measurement": "mean NAb titer", "setting": "[1]; at 12 weeks", "value": "118±271"},
      {"measurement": "NAb titer, mean", "setting": "[1]; wk 24, 2.0 mg/kg QOW group", "value": 130},
      {"measurement": "anti-rhGALNS total antibody (TAb) titer, mean", "setting": "[1]; wk 24, 2.0 mg/kg QOW group", "value": "190,901"},
      {"measurement": "NAb titer, mean", "setting": "[1]; wk 24, 2.0 mg/kg weekly group", "value": 52},
      {"measurement": "anti-rhGALNS total antibody (TAb) titer, mean", "setting": "[1]; wk 24, 2.0 mg/kg weekly group", "value": "167,737"},
      {"measurement": "CL with increased NAb titers (trend)", "setting": "[2]", "value": "decreased"},
      {"measurement": "t1/2 with increased NAb titers", "setting": "[2]", "value": "prolonged"},
      {"measurement": "development of drug-specific total antibodies (TAb)", "setting": "[3]; clinical study, treated individuals", "value": "all individuals"},
      {"measurement": "proportion of patients with NAb positivity", "setting": "[3]; week 36", "value": 85.9, "unit": "%"},
      {"measurement": "proportion of patients with NAb positivity", "setting": "[3]; week 120", "value": 66.0, "unit": "%"},
      {"measurement": "impact of NAb titers on efficacy (6MWT, uKS)", "setting": "[4]", "value": "no detrimental impact"},
      {"measurement": "half-life (t1/2)", "setting": "[5]; 2.0 mg/kg QOW", "value": 19, "unit": "min"},
      {"measurement": "plasma Cmax", "setting": "[5]; 2.0 mg/kg QOW", "value": 2600, "unit": "ng/mL"},
      {"measurement": "half-life (t1/2)", "setting": "[5]; 2.0 mg/kg QW", "value": 36, "unit": "min"},
      {"measurement": "plasma Cmax", "setting": "[5]; 2.0 mg/kg QW", "value": 4000, "unit": "ng/mL"},
      {"measurement": "concentration of unlabeled rhGALNS that reduced Alexa488-rhGALNS uptake", "setting": "[6]; NPS without AbPC", "value": "≥ 0.22", "unit": "µg/mL"},
      {"measurement": "rhGALNS concentration the assay can tolerate before interference with Alexa488-rhGALNS uptake", "setting": "[6]; drug tolerance", "value": "up to 0.22 μg/mL"},
      {"measurement": "highest neat concentration of rhGALNS at which the low and high PC-spiked samples screened positive", "setting": "[6]; highest concentration tested", "value": 2.00, "unit": "µg/mL"},
      {"measurement": "NHPS (% SI)", "setting": "[6]; unlabeled elosulfase alfa 0.0027 μg/mL", "value": "−10.84", "unit": "% SI"},
      {"measurement": "NHPS (% SI)", "setting": "[6]; unlabeled elosulfase alfa 0.008 μg/mL", "value": 3.79, "unit": "% SI"},
      {"measurement": "NHPS (% SI)", "setting": "[6]; unlabeled elosulfase alfa 0.025 μg/mL", "value": "−7.21", "unit": "% SI"},
      {"measurement": "NHPS (% SI)", "setting": "[6]; unlabeled elosulfase alfa 0.074 μg/mL", "value": "−5.58", "unit": "% SI"},
      {"measurement": "NHPS (% SI)", "setting": "[6]; unlabeled elosulfase alfa 0.22 μg/mL", "value": 8.00, "unit": "% SI"},
      {"measurement": "NHPS (% SI)", "setting": "[6]; unlabeled elosulfase alfa 0.67 μg/mL", "value": "26.94* % SI"},
      {"measurement": "NHPS (% SI)", "setting": "[6]; unlabeled elosulfase alfa 2.00 μg/mL", "value": "55.42* % SI"}
    ]},
    {"molecule": "B2", "values": [
      {"measurement": "localization by confocal imaging", "setting": "[7]", "value": "co-localized with lysosomes"},
      {"measurement": "MFI", "setting": "[6]; cells incubated at 4° C.", "value": "92.9±1.50"},
      {"measurement": "MFI", "setting": "[6]; cells incubated at 37° C.", "value": "4425±98.6"},
      {"measurement": "Kuptake", "setting": "[6]; Hanes-Woolf plot linear regression, dose-response 0 to 363.6 nM", "value": 46.3, "unit": "nM"},
      {"measurement": "Kuptake", "setting": "[6]; Jurkat T cells, 4 hours incubation at 37° C.", "value": "approximately 5 μg/mL"}
    ]}
  ]
}
